Reference: article PMC6908751
Like-named read-outs stand apart in the source and are kept apart here.

Assays:
[1] = biological target: Sh2 N9 Y169aH NA ectodomain (stabilized tetramer) (influenza A virus A/Shanghai/02/2013 (H7N9))
[2] = biological target: Sh2 N9 Y169aH NA ectodomain (stabilized tetramer) (influenza A virus A/Shanghai/02/2013 (H7N9)); assay: crystal structure

Sh2 N9 Y169aH NA ectodomain (stabilized tetramer) (domain or fragment)
stoichiometry N [1]: 4 | stoichiometry N [2]: 4
